The values below come from patent EP2835135A2, “Means and methods for treating pseudomonas infection” (Max-Planck-Gesellschaft zur Förderung der Wissenschaften …, priority 2013, dated 2015).

In assay [1] the target is T1, 14-3-3 (Homo sapiens, UniProt P63104).
T1 sequence (P63104 1-245): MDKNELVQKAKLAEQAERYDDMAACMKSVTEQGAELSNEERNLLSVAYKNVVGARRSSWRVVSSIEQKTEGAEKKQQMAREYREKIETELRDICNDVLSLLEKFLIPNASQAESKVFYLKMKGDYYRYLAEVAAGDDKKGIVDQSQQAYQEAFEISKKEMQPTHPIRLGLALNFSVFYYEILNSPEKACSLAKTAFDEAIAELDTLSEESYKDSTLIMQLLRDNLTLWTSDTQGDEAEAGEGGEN
The experiment in a line: FP competition experiment: labeled peptide preincubated with 14-3-3 and titrated with unlabeled WT peptide. The assay is classed as binding. Conditions: FITC-labeled peptide 20 nM, 14-3-3 4.0 µM, Figure 7. From the text:
The figures show: • Figure 1: (A) Schemetic representaion of ExoS' role in P. aeruginosa infection. (B) Crystal structure of 14-3-3 binding domain of ExoS bound to 14-3-3 (PDB 2002). • Figure 2: (A) Concept for an antibiotic strategy against P. aeruginosa. (B) Overlaid structures of 14-3-3 in complex with 14-3-3 binding domains of ExoS (PDB 2002) and endogenous phosphorylated sequences (PDB 1QJA, 1YWT, 2B05, 2BR9, 2BTP, 2C1J, 2C1N, 2C63, 2C74, 2NPM, 2IQV, 3LW1). • Figure 3: Alignment of 14-3-3 residues involved in inhibitor binding. • Figure 4: Dual assay for the identification of inhibitors of 14-3-3/ExoS interaction that would not affect interactions of 14-3-3 with endogenous binding parterns. L^1 and L^2 as well as L^3 and L^4 are chosen in order to allow a fluorescence polarization readout, ALPHA screen ("Amplified Luminescent Proximity Homogeneous Assay") or HRTF screen ("homogeneous time resolved fluorescence"; both ALPHA and HRTF screens are very sensitive homogeneous assay technologies that allow the screening of interactions in a proximity sensitive fashion). • Figure 5: (A) Crystal structure of ^420[…]^430 (sticks) complexed to 14-3-3 ζ ΔC (spacefill). The 2FC - F0 density is scaled to 1σ (grid). (B) Superimposition of truncated ExoS peptide (^420[…]^430) with the previously reported ExoS peptide (^416[…]^430, PDB 2002). […]

Assay [2] has as its target T1, 14-3-3. Briefly: Fluorescence polarization (FP) assay: fluorescein-labeled peptides titrated with unlabeled 14-3-3 protein. The assay is classed as binding. Particulars: three cross-link architectures (C8-linker), Figure 6B. (In fluorescence polarisation assays a small probe gives low polarisation when free and higher when bound to something large.)
Description: A fluorescence polarization (FP) assay was used to determine the affinity of fluorescein-labeled truncated versions of this peptide to 14-3-3 (Table 1). […] The labeled peptides were titrated with unlabeled 14-3-3 protein.
The binding affinities were again determined using FP.
The binding affinity of the non-classic cross-linked peptides was investigated using FP (Figure 6C).

Bridge positions count the residues as written; N and C are the ends. Square brackets hold non-standard residues; d marks the D form. Ends that are not written are not given here. S5 = C=CCCC[C@](C)(N)C(=O)O

For `CC(C)C[C@H](NC(=O)CNC(=O)[C@@H](N)CCC(N)=O)C(=O)N[C@@H](CC(C)C)C(=O)N[C@@H](CC(=O)O)C(=O)N[C@@H](C)C(=O)N[C@@H](CC(C)C)C(=O)N[C@@H](CC(=O)O)C(=O)N[C@@H](CC(C)C)C(=O)N[C@@H](C)C(=O)N[C@@H](CO)C(=O)O`, the “displacement of the labeled peptide by unlabeled WT peptide” value in assay [1] is “displacement by unlabeled WT peptide”.

On to “α cross-linked peptide: ExoS 11-mer with α cross-link (i,i+4): residues Leu426 and Leu422 replaced with S5, C8-linker (QG[S5]LDA[S5]DLAS; staple 3-7)”, for which, in assay [2], the “affinity for 14-3-3 compared to the starting sequence (WT)” value is “significantly decreased binding affinity”.

“γ cross-linked peptide: ExoS 11-mer with γ cross-link (i,i+3) at positions Leu426 and Leu423 (R5 and S5, respectively), C8-linker (QGLXDAXDLAS; non-natural residues)”: the “affinity for 14-3-3 compared to the starting sequence (WT)” value in assay [2] is listed as “significantly decreased binding affinity”.
